Source: US20240158515A1 (Regeneron, published 2024)

How the values were obtained:
[1] = molecular target: full length human FGFR3b on BaF3 cells (BAF3/FGFR3b, ACL11991) (human, UniProt P22607 23-808); test: cell-based or functional assay
[2] = molecular target: T1, cynomolgus FGFR3b expressed with a C-terminal myc-myc-hexahistidine tag (mfFGFR3b.mmH) (cynomolgus); test: SPR Biacore, mAb captured on anti-hFc, 25C
T1 construct: also called REGN3521; mf FGFR3b ecto (R357G)(E23-G377;R357G).mmH
T1 chain: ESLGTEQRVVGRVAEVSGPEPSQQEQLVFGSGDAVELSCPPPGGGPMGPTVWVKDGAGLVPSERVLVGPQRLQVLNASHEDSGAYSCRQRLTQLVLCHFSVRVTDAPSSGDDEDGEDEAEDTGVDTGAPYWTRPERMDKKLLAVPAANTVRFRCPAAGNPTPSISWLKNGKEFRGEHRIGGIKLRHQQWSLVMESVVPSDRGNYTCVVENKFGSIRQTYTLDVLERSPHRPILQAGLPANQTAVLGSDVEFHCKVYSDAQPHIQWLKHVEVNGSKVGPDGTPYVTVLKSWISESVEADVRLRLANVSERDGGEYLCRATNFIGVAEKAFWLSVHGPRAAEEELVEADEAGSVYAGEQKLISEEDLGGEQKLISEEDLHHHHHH

[3] = molecular target: T2, human FGFR3b expressed with a C-terminal murine Fc tag (hFGFR3b.mFc) (human); test: SPR Biacore, mAb captured on anti-hFc, 25C
T2 construct: called dimeric; also called REGN3153; dimeric human FGFR3b
T2 chain: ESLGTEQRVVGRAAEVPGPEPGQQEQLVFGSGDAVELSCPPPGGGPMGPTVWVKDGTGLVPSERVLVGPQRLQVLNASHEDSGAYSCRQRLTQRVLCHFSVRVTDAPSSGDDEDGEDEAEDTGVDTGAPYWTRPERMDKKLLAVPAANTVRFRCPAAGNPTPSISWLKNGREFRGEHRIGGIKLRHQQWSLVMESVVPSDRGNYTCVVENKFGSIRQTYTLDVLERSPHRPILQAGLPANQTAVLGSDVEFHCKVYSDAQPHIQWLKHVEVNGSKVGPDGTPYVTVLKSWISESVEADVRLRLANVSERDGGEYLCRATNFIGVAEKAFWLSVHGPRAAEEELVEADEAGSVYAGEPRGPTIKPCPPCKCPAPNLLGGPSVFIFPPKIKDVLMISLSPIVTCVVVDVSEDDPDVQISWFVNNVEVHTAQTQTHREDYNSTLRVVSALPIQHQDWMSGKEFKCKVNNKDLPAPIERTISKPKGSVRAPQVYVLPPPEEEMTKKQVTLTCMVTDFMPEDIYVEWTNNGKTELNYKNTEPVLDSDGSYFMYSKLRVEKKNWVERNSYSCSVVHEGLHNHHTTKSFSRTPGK

[4] = molecular target: T3, murine FGFR3b expressed with a C-terminal myc-myc-hexahistidine tag (mFGFR3b.mmH) (murine); test: SPR Biacore, mAb captured on anti-hFc, 25C
T3 construct: also called REGN3215; monomeric murine FGFR3b
T3 chain: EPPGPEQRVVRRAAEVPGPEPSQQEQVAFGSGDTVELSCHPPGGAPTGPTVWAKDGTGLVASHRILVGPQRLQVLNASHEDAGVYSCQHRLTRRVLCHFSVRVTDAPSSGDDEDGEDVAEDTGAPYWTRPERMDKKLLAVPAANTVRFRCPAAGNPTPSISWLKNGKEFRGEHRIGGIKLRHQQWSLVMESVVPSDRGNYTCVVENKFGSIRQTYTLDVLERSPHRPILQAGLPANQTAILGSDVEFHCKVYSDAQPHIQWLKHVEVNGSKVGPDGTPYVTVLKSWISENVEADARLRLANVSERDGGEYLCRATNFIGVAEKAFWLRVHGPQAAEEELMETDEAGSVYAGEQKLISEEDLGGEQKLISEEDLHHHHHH

[5] = molecular target: T4, human FGFR3b expressed with a C-terminal myc-myc-hexahistidine tag (hFGFR3b.mmH) (human); test: SPR Biacore, mAb captured on anti-hFc, 25C
T4 construct: also called REGN3152; monomeric human FGFR3b
T4 chain: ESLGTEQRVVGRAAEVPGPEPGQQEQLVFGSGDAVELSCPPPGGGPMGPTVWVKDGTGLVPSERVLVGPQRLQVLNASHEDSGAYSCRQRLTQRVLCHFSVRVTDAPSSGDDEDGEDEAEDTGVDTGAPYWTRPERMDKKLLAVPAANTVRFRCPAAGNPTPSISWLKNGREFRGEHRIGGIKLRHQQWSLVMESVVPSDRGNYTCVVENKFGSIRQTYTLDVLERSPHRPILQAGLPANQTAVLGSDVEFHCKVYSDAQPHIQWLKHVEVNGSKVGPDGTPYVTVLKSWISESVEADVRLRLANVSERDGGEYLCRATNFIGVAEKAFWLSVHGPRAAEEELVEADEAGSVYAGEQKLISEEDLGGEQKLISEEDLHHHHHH

[6] = molecular target: T5, human FGFR3c expressed with a C-terminal myc-myc-hexahistidine tag (hFGFR3c.mmH) (human, UniProt P22607 23-375); test: SPR Biacore, mAb captured on anti-hFc, 25C; row marked NB
T5 construct: also called REGN3155; monomeric human FGFR3c

B1: H4H30063P (antibody, human IgG4 S228P, kappa, V domains shown)
VH: QVQLQESGPGLVKPSETLSLTCTVSGDSINSYFWSWIRQLPGKELEWIGHIYSSGSTRYNPSLQSRVTISIDTSKNQFSLKLSSVTAADTAVYYCARGASAVDYWGQGTLVTVSS
VL: EIVLTQSPGTLSLSPGERATLSCRTSQSISSGYLAWYQQKPGQAPRLLIYGASRRATGIPDRFSGSGSGTDFTLTISRLEPEDFVVYYCQQYGSSPYTFGQGTKLEIKR
notes: HCVR 2, LCVR 10; also called REGN15684
IC50 [M], BaF3 proliferation (CellTiter-Glo) with 1 nM FGF1 + 5 ug/ml heparin [1]: 6.06e-10 M | Max Blocking (%), BaF3 proliferation (CellTiter-Glo) with 1 nM FGF1 + 5 ug/ml heparin [1]: 98% | 90 nM mfFGFR3b.mmH Bind (RU) [2]: 212 RU | Kd [2]: 0.275 nM | koff [2]: 4.21e-05 s⁻¹ | kon [2]: 153000 M⁻¹ s⁻¹ | t½ [2]: 4.58 h | 30 nM hFGFR3b.mFc Bind (RU) [3]: 296 RU | Kd [3]: ≤ 0.0226 nM | koff [3]: ≤ 1e-05 s⁻¹ | kon [3]: 442000 M⁻¹ s⁻¹ | t½ [3]: ≥ 19.2 h | 90 nM mFGFR3b.mmH Bind (RU) [4]: 259 RU | Kd [4]: 0.137 nM | koff [4]: 2.78e-05 s⁻¹ | kon [4]: 204000 M⁻¹ s⁻¹ | t½ [4]: 6.92 h | 90 nM hFGFR3b.mmH Bind (RU) [5]: 240 RU | Kd [5]: 0.222 nM | koff [5]: 3.83e-05 s⁻¹ | kon [5]: 172000 M⁻¹ s⁻¹ | t½ [5]: 5.03 h | 90 nM hFGFR3c.mmH Bind (RU) [6]: -19.6 RU
